Results as given in US20080003614.

What was measured:
[1] = system: 35S-labeled FLAG-MAVS (in vitro translated)
[2] = system: 35S-labeled FLAG-MAVS-C508R (in vitro translated)

Row | Substance | cleavage of 35S-labeled MAVS in vitro (SDS-PAGE, PhosphorImaging) [1] | cleavage of 35S-labeled MAVS in vitro (SDS-PAGE, PhosphorImaging) [2]
1 | Flag-NS3/4A (S139A), protease-dead mutant | the wild type MAVS was cleaved by the active NS3/4A protease, but not the inactive NS3/4A mutant | 
2 | Flag-NS3/4A (wild type hepatitis C virus NS3/4A serine protease) | the wild type MAVS was cleaved by the active NS3/4A protease | a point mutation at Cys-508 completely blocked the cleavage of MAVS by NS3/4A in vitro
